Experimental data as given in US20230064978A1, “CYCLIC PEPTIDE RECEPTOR LANTHIONINE SYNTHETASE C-LIKE PROTEIN (LANCL) AND USES THEREOF” (LATERAL IP PTY LTD, priority 2019, published 2023).
“Also recorded” adds a separate entry of the source. Bridges are numbered along the chain shown (N, C = ends). Where no end group is shown, it is not given here.

Columns and labels:
human recombinant LANCL2 = molecular target: T1, human recombinant LANCL2 (Homo sapiens, UniProt Q9NS86); experiment: In-gel fluorescence: photolabelling of recombinant LANCL2 with PAL probe, with or without excess LAT8881; assay type: binding
T1 construct: human recombinant LANCL2 (amino acid residues 1-450); GST (N); purchased ABCAM ab163277; host or cells: wheat germ
T1 sequence (Q9NS86 1-450): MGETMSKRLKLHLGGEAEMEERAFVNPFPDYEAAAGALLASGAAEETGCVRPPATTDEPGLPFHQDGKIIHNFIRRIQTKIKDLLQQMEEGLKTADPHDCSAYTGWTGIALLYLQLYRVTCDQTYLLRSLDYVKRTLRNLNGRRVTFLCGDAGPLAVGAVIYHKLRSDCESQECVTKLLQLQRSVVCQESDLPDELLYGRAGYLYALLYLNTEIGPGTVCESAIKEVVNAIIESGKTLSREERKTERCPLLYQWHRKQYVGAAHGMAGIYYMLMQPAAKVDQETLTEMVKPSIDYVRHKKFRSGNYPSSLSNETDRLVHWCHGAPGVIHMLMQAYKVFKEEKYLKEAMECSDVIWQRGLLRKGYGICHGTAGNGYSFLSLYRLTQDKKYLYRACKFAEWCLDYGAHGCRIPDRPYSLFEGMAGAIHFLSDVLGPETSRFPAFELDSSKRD
Protocol: An in-gel fluorescence protocol was followed to determine whether the cyclic peptides bound to LANCL2 and LANCL3. Briefly:
1. LANCL2 and LANCL3 Labelling, Assay on 96 Well Plate, Volume of the Reaction 40 μl in PBS
• 1 μg/well of human recombinant LANCL2 (amino acid residues 1-450; ABCAM catalog no. ab163277, ˜0.07 mg/ml; expressed in wheat germ and incorporating an N-terminal GST tag; UniProt Accession no: Q9NS86);
• Vehicle DMSO • ±LAT8881 (a cyclic peptide fragment of human growth hormone; SEQ ID NO:1) • SEQ ID NO:1 as competitor @ 50, 100 or 200 μM, pre-incubation 10 min, 4 μl of a stock solution 10-fold concentrated • ±LAT9991-PAL probes @ 1 μM, incubation 30 min at room temperature on a plate agitator (protected from light), 4 μl of a stock solution @10 μM
• Irradiation @ 365 nm 20 min (4° C., on a support containing ice) • Transfer 40 μl in a clean Eppendorf tube
• Reduction: DTT 10 mM, 30 min @ 56° C. • Alkylation: Iodoacétamide 30 mM, 45 min @ RT Click-iT AzideTamra of 60 μL samples
• Acetone Precipitation −20° C. ON • Dry pellet resuspended in 30 μL 1% SDS in 50 mM Tris-HCl pH 7.5 • Photolabeled LANCL1 was tagged with tetramethylrhodamine (TAMRA) azide @100 μM TAMRA azide by copper click chemistry using the Click-iT Protein Reaction Buffer Kit (ThermoFisher Scientific) for 30 minutes • Precipitation using the chloroform-methanol method, pellet was air-dried for 10 min at room temperature, resuspended in 30 μL SDS loading buffer (Bio Rad XT Sample Buffer containing 2.5% v/v 2-mercaptoethanol) and heated (60° C., 30 min)
• SDS-PAGE (4-15% Criterion™ TGX Stain-Free™ Protein Gel, Bio Rad) • Analyzed by in-gel fluorescence scanning using a ChemiDoc™ MP Imaging System (Bio Rad) with a green LED light as an excitation source and a BP600/20 nm emission filter

LANCL1 = LANCL1 (Rattus norvegicus, UniProt Q9QX69); experiment: Mass spectrometry of excised gel bands from PAL cross-linked homogenates (PALMS); assay type: binding; design: from tissue; host or cells: nerve tissue homogenate of neuropathic animals
Sequence of LANCL1 (Q9QX69 whole entry): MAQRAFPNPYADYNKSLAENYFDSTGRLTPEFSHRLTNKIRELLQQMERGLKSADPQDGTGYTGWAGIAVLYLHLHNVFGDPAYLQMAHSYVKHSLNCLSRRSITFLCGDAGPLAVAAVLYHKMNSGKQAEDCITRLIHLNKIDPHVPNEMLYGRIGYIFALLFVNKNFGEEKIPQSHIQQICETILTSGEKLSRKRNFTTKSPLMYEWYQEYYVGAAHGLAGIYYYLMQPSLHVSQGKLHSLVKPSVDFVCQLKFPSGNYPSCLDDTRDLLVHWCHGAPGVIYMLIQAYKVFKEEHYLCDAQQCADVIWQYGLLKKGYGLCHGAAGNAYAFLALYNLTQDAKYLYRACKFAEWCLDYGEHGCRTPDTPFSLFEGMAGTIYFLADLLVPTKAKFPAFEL
Text: Having identified at least three molecular weight bands as representative of the potential targets, the 12-15 kD, 37 kD and 50 kD regions of the gel were excised, subjected to limited proteolysis and analysed by mass spectrometry to identify peptides from proteins that were differentially enriched. The detection of at least two different peptides from a protein that is enriched in the LAT9991-PAL cross-linked samples when compared to (i) the un-crosslinked samples and (ii) LAT9991-PAL in the presence of excess LAT8881 (SEQ ID NO:1; YLRIVQCRSVEGSCGF) was considered a positive signature. LAT9991-PAL, LAT9993-PAL and LAT7771-PAL were also used. LAT9993 (SEQ ID NO:41) has the amino acid sequence SCRSRPVESSC.

LAT9991-PAL: cyclic peptide of SEQ ID NO:12 (LAT9991) conjugated to the PAL (Photo-Activated Labelling) grouping (CRSVEGSCG; disulfide 1-8 (inferred); also: PAL group on N-terminal Cys-Arg part)
Binding of PAL probe to recombinant LANCL2 (human recombinant LANCL2; in-gel fluorescence after UV cross-linking): binds | LANCL1 bound / enriched in PAL probe cross-linked samples (mass spectrometry) (LANCL1; vs un-crosslinked samples (CU) and samples with excess LAT8881 (COMP), 37 kDa band): met the arbitrary statistical criteria for a “hit”; also recorded: enriched by several fold-changes; also recorded: bound to LANCL1

YLRIVQCRSVEGSCGF [LAT8881, a cyclic peptide fragment of human growth hormone]
Inhibition of LAT7771-PAL binding to recombinant LANCL2 by excess competitor (human recombinant LANCL2; probe LAT7771-PAL (as in FIG. 10 legend), excess LAT8881): inhibited | Inhibition of LAT9991-PAL binding to LANCL2 by excess competitor (human recombinant LANCL2; probe LAT9991-PAL, excess LAT8881): inhibited | Inhibition of PAL probe binding to LANCL1 from tissue homogenates by excess competitor (LANCL1; probes LAT9991-PAL, LAT9993-PAL, LAT7771-PAL, excess LAT8881): inhibited
